Data reported in patent US20250163127A1 (published 2025).

Legend:
Test in all cases: cell-based or functional assay
TIGIT = biological target: T1, TIGIT (human, UniProt Q495A1)
T1 sequence: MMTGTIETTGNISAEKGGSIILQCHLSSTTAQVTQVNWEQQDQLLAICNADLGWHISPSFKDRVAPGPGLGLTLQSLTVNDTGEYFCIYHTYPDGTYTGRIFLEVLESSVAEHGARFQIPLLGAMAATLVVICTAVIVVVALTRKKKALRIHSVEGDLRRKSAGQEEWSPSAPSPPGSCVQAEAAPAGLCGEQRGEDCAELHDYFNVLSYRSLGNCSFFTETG

human CD86 = biological target: T2, human CD86 (human)
T2 chain: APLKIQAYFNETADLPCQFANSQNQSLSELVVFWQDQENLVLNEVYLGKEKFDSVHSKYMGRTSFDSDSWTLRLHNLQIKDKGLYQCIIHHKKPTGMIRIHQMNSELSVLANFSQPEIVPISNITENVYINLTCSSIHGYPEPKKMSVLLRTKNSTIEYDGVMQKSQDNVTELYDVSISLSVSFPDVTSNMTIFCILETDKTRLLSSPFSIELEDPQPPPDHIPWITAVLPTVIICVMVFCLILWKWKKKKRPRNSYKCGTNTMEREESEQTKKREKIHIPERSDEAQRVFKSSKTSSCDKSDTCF

PD-1 = PD-1 (human, UniProt Q15116)
CD2 = CD2 (human, UniProt P06729)

B1: CTLA-4 3060-CD155 665-Fc (Fc fusion)
chain: KAMHVAQPAVVFASSHGIASFVCEYASPWKATEVRVTVLRQADSQVTEVCAATYMTGNELTFLDDSICTGTSSGNQVNLTIQGLRAMDTGLYICKVEQMYPPPYLLGIGNGTQIYVIDPEPCPDSDGGGGSGGGGSGGGGSWPPPGTGDVVVQAPTQVSGFLGDSVTLPCYLQVPNMEVTHVSQLTWARHGESGSMAVFHQTQGPWYAESKRLEFVAARLGAELRNASLRVFGLRAEDEGNYTCQFVTFPQRSRSVDIWLRVLGSGGGGSEPKSSDKTHTCPPCPAPEAEGAPSVFLFPPKPKDTLMISRTPEVTCVVVDVSHEDPEVKFNWYVDGVEVHNAKTKPREEQYNSTYRVVSVLTVLHQDWLNGKEYKCKVSNKALPAPIEKTISKAKGQPREPQVYTLPPSRDELTKNQVSLTCLVKGFYPSDIAVEWESNGQPENNYKTTPPVLDSDGSFFLYSKLTVDKSRWQQGNVFSCSVMHEALHNHYTQKSLSLSPG
100 nM IFN-gamma (pg/mL), SEB assay (TIGIT): 1900 pg/mL | 100 nM IFN-gamma (pg/mL), SEB assay (human CD86): 1900 pg/mL

B2: CD58 3650-CD58 3650-PD-L1 303-PD-L1 303 (other)
chain: SQQIYGVVYGNVTFHVPSNVPLKEVLWKKQKDKVAELENSEFRAFSSFKNRVYLDTVSGSLTIYNLTSSDEDEYEMESPNITDTMKFFLYVLESGGGGSGGGGSGGGGSSQQIYGVVYGNVTFHVPSNVPLKEVLWKKQKDKVAELENSEFRAFSSFKNRVYLDTVSGSLTIYNLTSSDEDEYEMESPNITDTMKFFLYVLESGGGGSGGGGSGGGGSFTVTVPKDLYVVEYGSNMTIECKFPVEKQLDLAALIVYWEMEGKDIIQFVHGEEDQKAQHSSYRQRARLLKDQLSLGNAALQITDVKLQDAGVYRCMISYGGGADYKRITVKVNAGSGGSGGGGSGGGGSFTVTVPKDLYVVEYGSNMTIECKFPVEKQLDLAALIVYWEMEGKDIIQFVHGEEDQKAQHSSYRQRARLLKDQLSLGNAALQITDVKLQDAGVYRCMISYGGGADYKRITVKVNAGSGGGGSDYKDDDDKHHHHHH
100 nM IFN-gamma (pg/mL), SEB assay (PD-1): 6030 pg/mL | 100 nM IFN-gamma (pg/mL), SEB assay (CD2): 6030 pg/mL

B3: CD155 665-CTLA-4 3037-Fc (Fc fusion)
chain: WPPPGTGDVVVQAPTQVSGFLGDSVTLPCYLQVPNMEVTHVSQLTWARHGESGSMAVFHQTQGPWYAESKRLEFVAARLGAELRNASLRVFGLRAEDEGNYTCQFVTFPQRSRSVDIWLRVLGGGGSGGGGSGGGGSKAMHVAQPAVVFASSHGIASFVCEYASPWKATEVRVTVLRQADSQVTEVCAATYMTGNELTFLDDSICTGTSSGNQVNLTIQGLRAMDTGLYICKVEQMYPPPYLLGIGNGTQIYVIDPEPCPDSDGSGGGGSEPKSSDKTHTCPPCPAPEAEGAPSVFLFPPKPKDTLMISRTPEVTCVVVDVSHEDPEVKFNWYVDGVEVHNAKTKPREEQYNSTYRVVSVLTVLHQDWLNGKEYKCKVSNKALPAPIEKTISKAKGQPREPQVYTLPPSRDELTKNQVSLTCLVKGFYPSDIAVEWESNGQPENNYKTTPPVLDSDGSFFLYSKLTVDKSRWQQGNVFSCSVMHEALHNHYTQKSLSLSPG
100 nM IFN-gamma (pg/mL), SEB assay (TIGIT): 4310 pg/mL | 100 nM IFN-gamma (pg/mL), SEB assay (human CD86): 4310 pg/mL

B4: CD58 3650-PD-L1 303-PD-L1 303-CD58 3650 (other)
chain: SQQIYGVVYGNVTFHVPSNVPLKEVLWKKQKDKVAELENSEFRAFSSFKNRVYLDTVSGSLTIYNLTSSDEDEYEMESPNITDTMKFFLYVLESGGGGSGGGGSGGGGSFTVTVPKDLYVVEYGSNMTIECKFPVEKQLDLAALIVYWEMEGKDIIQFVHGEEDQKAQHSSYRQRARLLKDQLSLGNAALQITDVKLQDAGVYRCMISYGGGADYKRITVKVNAGGGGSGGGGSGGGGSFTVTVPKDLYVVEYGSNMTIECKFPVEKQLDLAALIVYWEMEGKDIIQFVHGEEDQKAQHSSYRQRARLLKDQLSLGNAALQITDVKLQDAGVYRCMISYGGGADYKRITVKVNAGSGGSGGGGSGGGGSSQQIYGVVYGNVTFHVPSNVPLKEVLWKKQKDKVAELENSEFRAFSSFKNRVYLDTVSGSLTIYNLTSSDEDEYEMESPNITDTMKFFLYVLESGSGGGGSDYKDDDDKHHHHHH
100 nM IFN-gamma (pg/mL), SEB assay (PD-1): 16200 pg/mL | 100 nM IFN-gamma (pg/mL), SEB assay (CD2): 16200 pg/mL

B5: CD155 665-CD58 3650-Fc (Fc fusion)
chain: WPPPGTGDVVVQAPTQVSGFLGDSVTLPCYLQVPNMEVTHVSQLTWARHGESGSMAVFHQTQGPWYAESKRLEFVAARLGAELRNASLRVFGLRAEDEGNYTCQFVTFPQRSRSVDIWLRVLGGGGSGGGGSGGGGSSQQIYGVVYGNVTFHVPSNVPLKEVLWKKQKDKVAELENSEFRAFSSFKNRVYLDTVSGSLTIYNLTSSDEDEYEMESPNITDTMKFFLYVLESGSGGGGSEPKSSDKTHTCPPCPAPEAEGAPSVFLFPPKPKDTLMISRTPEVTCVVVDVSHEDPEVKFNWYVDGVEVHNAKTKPREEQYNSTYRVVSVLTVLHQDWLNGKEYKCKVSNKALPAPIEKTISKAKGQPREPQVYTLPPSRDELTKNQVSLTCLVKGFYPSDIAVEWESNGQPENNYKTTPPVLDSDGSFFLYSKLTVDKSRWQQGNVFSCSVMHEALHNHYTQKSLSLSPG
100 nM IFN-gamma (pg/mL), SEB assay (TIGIT): 5850 pg/mL | 100 nM IFN-gamma (pg/mL), SEB assay (CD2): 5850 pg/mL

B6: PD-L1 303-PD-L1 303-CD58 3650-CD58 3650 (other)
chain: FTVTVPKDLYVVEYGSNMTIECKFPVEKQLDLAALIVYWEMEGKDIIQFVHGEEDQKAQHSSYRQRARLLKDQLSLGNAALQITDVKLQDAGVYRCMISYGGGADYKRITVKVNAGGGGSGGGGSGGGGSFTVTVPKDLYVVEYGSNMTIECKFPVEKQLDLAALIVYWEMEGKDIIQFVHGEEDQKAQHSSYRQRARLLKDQLSLGNAALQITDVKLQDAGVYRCMISYGGGADYKRITVKVNAGGGGSGGGGSGGGGSSQQIYGVVYGNVTFHVPSNVPLKEVLWKKQKDKVAELENSEFRAFSSFKNRVYLDTVSGSLTIYNLTSSDEDEYEMESPNITDTMKFFLYVLESGSGGSGGGGSGGGGSSQQIYGVVYGNVTFHVPSNVPLKEVLWKKQKDKVAELENSEFRAFSSFKNRVYLDTVSGSLTIYNLTSSDEDEYEMESPNITDTMKFFLYVLESGSGGGGSDYKDDDDKHHHHHH
100 nM IFN-gamma (pg/mL), SEB assay (PD-1): 8620 pg/mL | 100 nM IFN-gamma (pg/mL), SEB assay (CD2): 8620 pg/mL

B7: CD 155 665 G4S FLAGHis (ligand)
chain: WPPPGTGDVVVQAPTQVSGFLGDSVTLPCYLQVPNMEVTHVSQLTWARHGESGSMAVFHQTQGPWYAESKRLEFVAARLGAELRNASLRVFGLRAEDEGNYTCQFVTFPQRSRSVDIWLRVLGGGGSDYKDDDDKHHHHHH
100 nM IFN-gamma (pg/mL), SEB assay (TIGIT): 10300 pg/mL

B8: PD-L1 303-CD155 665-CTLA-4 3037-Fc (Fc fusion)
chain: FTVTVPKDLYVVEYGSNMTIECKFPVEKQLDLAALIVYWEMEGKDIIQFVHGEEDQKAQHSSYRQRARLLKDQLSLGNAALQITDVKLQDAGVYRCMISYGGGADYKRITVKVNAGGGGSGGGGSGGGGSWPPPGTGDVVVQAPTQVSGFLGDSVTLPCYLQVPNMEVTHVSQLTWARHGESGSMAVFHQTQGPWYAESKRLEFVAARLGAELRNASLRVFGLRAEDEGNYTCQFVTFPQRSRSVDIWLRVLGGGGSGGGGSGGGGSKAMHVAQPAVVFASSHGIASFVCEYASPWKATEVRVTVLRQADSQVTEVCAATYMTGNELTFLDDSICTGTSSGNQVNLTIQGLRAMDTGLYICKVEQMYPPPYLLGIGNGTQIYVIDPEPCPDSDGSGGGGSEPKSSDKTHTCPPCPAPEAEGAPSVFLFPPKPKDTLMISRTPEVTCVVVDVSHEDPEVKFNWYVDGVEVHNAKTKPREEQYNSTYRVVSVLTVLHQDWLNGKEYKCKVSNKALPAPIEKTISKAKGQPREPQVYTLPPSRDELTKNQVSLTCLVKGFYPSDIAVEWESNGQPENNYKTTPPVLDSDGSFFLYSKLTVDKSRWQQGNVFSCSVMHEALHNHYTQKSLSLSPG
100 nM IFN-gamma (pg/mL), SEB assay (PD-1): 7350 pg/mL | 100 nM IFN-gamma (pg/mL), SEB assay (TIGIT): 7350 pg/mL | 100 nM IFN-gamma (pg/mL), SEB assay (human CD86): 7350 pg/mL
